Source: publication PMC9482650, “Quantitative fragmentomics allow affinity mapping of interactomes” (Nature Communications, 2022)

Assays:
Test in all cases: holdup assay
Set-up in all cases: key: below the threshold = too weak to quantify, mostly under pKd 3.1 to 4
Conditions in all cases: plain residues with an end cap or a label only (N-terminal biotin on a linker: ado-ado)
[1] = molecular target: T1, PDZRN3_1, Q9UPQ7
T1 sequence (Q9UPQ7 244-349, limits assumed, looked up): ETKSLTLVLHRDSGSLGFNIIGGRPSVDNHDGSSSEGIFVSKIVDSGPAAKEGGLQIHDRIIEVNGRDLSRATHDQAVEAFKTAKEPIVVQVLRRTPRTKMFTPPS

[2] = molecular target: GRIP2_4, Q9C0E4
Chain of GRIP2_4, Q9C0E4 (Q9C0E4 446-548): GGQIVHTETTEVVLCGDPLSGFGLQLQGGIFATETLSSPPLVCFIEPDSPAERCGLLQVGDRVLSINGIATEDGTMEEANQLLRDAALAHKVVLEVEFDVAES

[3] = molecular target: T2, SNTG2, Q9NY99
T2 sequence (Q9NY99 68-166, limits assumed, looked up): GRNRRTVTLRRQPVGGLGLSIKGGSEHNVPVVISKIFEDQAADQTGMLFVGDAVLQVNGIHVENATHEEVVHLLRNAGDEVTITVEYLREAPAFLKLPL

[4] = molecular target: T3, APBA2_2, Q99767
T3 sequence (Q99767 654-744, limits assumed, looked up): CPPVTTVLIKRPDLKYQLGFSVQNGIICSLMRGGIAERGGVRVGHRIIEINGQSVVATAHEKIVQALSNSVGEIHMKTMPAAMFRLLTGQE

[5] = molecular target: GRIP2_5, Q9C0E4
Chain of GRIP2_5, Q9C0E4 (Q9C0E4 544-642): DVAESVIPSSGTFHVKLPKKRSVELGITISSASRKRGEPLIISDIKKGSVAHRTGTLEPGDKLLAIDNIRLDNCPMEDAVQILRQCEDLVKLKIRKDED

[6] = molecular target: T4, DFNB31_1, Q9P202
T4 sequence (Q9P202 135-233, limits assumed, looked up): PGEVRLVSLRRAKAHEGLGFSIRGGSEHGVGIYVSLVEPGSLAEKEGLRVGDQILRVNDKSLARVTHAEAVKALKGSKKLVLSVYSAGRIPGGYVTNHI

[7] = molecular target: T5, APBA2_1, Q99767
T5 sequence (Q99767 563-664, limits assumed, looked up): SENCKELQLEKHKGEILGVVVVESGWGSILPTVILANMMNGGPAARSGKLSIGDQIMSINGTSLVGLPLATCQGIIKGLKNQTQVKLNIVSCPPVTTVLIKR

[8] = molecular target: LNX1_2, Q8TBB1
Chain of LNX1_2, Q8TBB1 (Q8TBB1 371-470): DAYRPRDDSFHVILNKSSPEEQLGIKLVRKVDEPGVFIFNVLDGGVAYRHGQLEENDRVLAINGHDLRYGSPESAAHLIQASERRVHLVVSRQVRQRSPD

[9] = molecular target: FRMPD3, Q5JV73
Chain of FRMPD3, Q5JV73 (Q5JV73 12-100): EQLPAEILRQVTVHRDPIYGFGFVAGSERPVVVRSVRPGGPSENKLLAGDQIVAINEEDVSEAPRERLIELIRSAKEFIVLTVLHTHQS

[10] = molecular target: HTRA2, O43464
Chain of HTRA2, O43464 (O43464 355-458): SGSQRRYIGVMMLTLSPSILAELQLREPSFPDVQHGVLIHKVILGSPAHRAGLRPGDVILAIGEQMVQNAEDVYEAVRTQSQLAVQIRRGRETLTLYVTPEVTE

[11] = molecular target: NHERF2_2, Q15599
Chain of NHERF2_2, Q15599 (Q15599 142-238): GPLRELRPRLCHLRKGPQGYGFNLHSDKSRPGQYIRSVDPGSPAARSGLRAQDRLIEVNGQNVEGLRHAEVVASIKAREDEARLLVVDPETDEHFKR

[12] = molecular target: Inadl_2, Q8NI35
Chain of Inadl_2, Q8NI35 (Q8NI35 238-335): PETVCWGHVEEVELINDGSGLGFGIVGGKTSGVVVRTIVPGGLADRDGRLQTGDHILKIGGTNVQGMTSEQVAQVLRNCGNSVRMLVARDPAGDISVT

[13] = molecular target: LAP2, Q96RT1
Chain of LAP2, Q96RT1 (Q96RT1 other isoform, or with tags, fused parts or gaps): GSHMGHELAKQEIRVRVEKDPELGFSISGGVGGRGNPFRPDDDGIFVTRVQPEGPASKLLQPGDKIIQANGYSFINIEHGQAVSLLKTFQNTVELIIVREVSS

[14] = molecular target: MAGI1_1, Q96QZ7
Chain of MAGI1_1, Q96QZ7 (Q96QZ7 1-106): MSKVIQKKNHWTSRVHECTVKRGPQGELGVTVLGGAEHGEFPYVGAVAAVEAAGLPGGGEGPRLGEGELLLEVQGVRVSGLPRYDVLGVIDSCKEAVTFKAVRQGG

[15] = molecular target: T6, PARD3B_1, Q8TEW8
T6 sequence (Q8TEW8 196-299, limits assumed, looked up): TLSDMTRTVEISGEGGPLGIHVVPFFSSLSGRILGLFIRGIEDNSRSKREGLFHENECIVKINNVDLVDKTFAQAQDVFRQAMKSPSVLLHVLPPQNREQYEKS

[16] = molecular target: T7, TIAM2, Q8IVF5
T7 sequence (Q8IVF5 885-986, limits assumed, looked up): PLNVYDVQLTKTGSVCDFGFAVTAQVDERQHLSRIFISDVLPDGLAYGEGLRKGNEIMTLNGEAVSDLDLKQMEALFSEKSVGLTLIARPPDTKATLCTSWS

[17] = molecular target: T8, MPDZ_10, O75970
T8 sequence (O75970 1624-1722, limits assumed, looked up): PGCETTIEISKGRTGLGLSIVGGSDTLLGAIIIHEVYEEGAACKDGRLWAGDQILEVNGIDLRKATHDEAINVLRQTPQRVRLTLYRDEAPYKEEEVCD

[18] = molecular target: LNX1_1, Q8TBB1
Chain of LNX1_1, Q8TBB1 (Q8TBB1 261-371): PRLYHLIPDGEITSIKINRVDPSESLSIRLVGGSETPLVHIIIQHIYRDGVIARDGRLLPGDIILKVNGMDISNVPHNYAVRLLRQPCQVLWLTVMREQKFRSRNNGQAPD

[19] = molecular target: T9, GRIP1_2, Q9Y3R0
T9 sequence (Q9Y3R0 145-248, limits assumed, looked up): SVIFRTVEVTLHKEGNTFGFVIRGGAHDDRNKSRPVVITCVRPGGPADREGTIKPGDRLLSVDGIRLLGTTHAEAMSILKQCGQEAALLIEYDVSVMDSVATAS

[20] = molecular target: GORASP1, Q9BQQ3
Chain of GORASP1, Q9BQQ3 (Q9BQQ3 1-208): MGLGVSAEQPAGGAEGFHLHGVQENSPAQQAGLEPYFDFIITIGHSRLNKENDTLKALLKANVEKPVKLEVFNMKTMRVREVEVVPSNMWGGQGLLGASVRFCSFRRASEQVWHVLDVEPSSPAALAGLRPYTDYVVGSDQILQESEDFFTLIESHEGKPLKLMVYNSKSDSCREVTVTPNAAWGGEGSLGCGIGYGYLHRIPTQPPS

[21] = molecular target: GRIP2_3, Q9C0E4
Chain of GRIP2_3, Q9C0E4 (Q9C0E4 238-339): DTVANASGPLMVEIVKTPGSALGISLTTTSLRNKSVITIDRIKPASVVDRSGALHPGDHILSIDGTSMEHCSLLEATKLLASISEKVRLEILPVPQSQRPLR

[22] = molecular target: T10, NHERF3_1, Q5T2W1
T10 sequence (Q5T2W1 4-100, limits assumed, looked up): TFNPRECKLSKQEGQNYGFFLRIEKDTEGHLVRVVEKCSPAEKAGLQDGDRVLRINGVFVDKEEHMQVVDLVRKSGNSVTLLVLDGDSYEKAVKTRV

[23] = molecular target: T11, PTPN13_1, Q12923
T11 sequence (Q12923 1088-1188, limits assumed, looked up): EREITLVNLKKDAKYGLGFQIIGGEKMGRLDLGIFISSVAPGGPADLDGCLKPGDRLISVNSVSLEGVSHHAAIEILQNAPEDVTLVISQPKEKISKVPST

[24] = molecular target: FRMPD2_3, Q68DX3
Chain of FRMPD2_3, Q68DX3 (Q68DX3 1073-1166): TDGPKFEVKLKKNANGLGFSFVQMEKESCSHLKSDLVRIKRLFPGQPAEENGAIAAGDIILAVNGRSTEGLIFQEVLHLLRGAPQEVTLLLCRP

[25] = molecular target: GRIP2_6, Q9C0E4
Chain of GRIP2_6, Q9C0E4 (Q9C0E4 648-740): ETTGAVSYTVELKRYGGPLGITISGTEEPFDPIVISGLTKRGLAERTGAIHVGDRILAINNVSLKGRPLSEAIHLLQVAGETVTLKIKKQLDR

[26] = molecular target: DLG4_1, P78352
Chain of DLG4_1, P78352 (P78352 62-152): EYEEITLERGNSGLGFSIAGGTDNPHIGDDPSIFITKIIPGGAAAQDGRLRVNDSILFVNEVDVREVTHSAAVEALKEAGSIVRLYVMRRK

[27] = molecular target: PARD3_3, Q8TEW0
Chain of PARD3_3, Q8TEW0 (Q8TEW0 582-685): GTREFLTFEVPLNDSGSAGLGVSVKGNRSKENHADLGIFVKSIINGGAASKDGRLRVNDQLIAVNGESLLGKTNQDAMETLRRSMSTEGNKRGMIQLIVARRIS

| Binder | pKd [1] | pKd [2] | pKd [3] | pKd [4] | pKd [5] | pKd [6] | pKd [7] | pKd [8] | pKd [9] | pKd [10] | pKd [11] | pKd [12] | pKd [13] | pKd [14] | pKd [15] | pKd [16] | pKd [17] | pKd [18] | pKd [19] | pKd [20] | also measured |
| --- | --- | --- | --- | --- | --- | --- | --- | --- | --- | --- | --- | --- | --- | --- | --- | --- | --- | --- | --- | --- | --- |
| KEKASTETEC [TRPM1, Q7Z4N2] | below the threshold | below the threshold | below the threshold | below the threshold | below the threshold | below the threshold | below the threshold | below the threshold | below the threshold | below the threshold | below the threshold | below the threshold | 3.67 | below the threshold | 3.97 | below the threshold | below the threshold | below the threshold | below the threshold | below the threshold | pKd [21]: below the threshold; pKd [22]: 3.64; pKd [23]: below the threshold; pKd [24]: below the threshold; pKd [25]: below the threshold; pKd [26]: 3.88; pKd [27]: below the threshold |
| QKASRNESTF [POLR1D, P0DPB6] | below the threshold | below the threshold | below the threshold | below the threshold | below the threshold | below the threshold | below the threshold | below the threshold | below the threshold | below the threshold | 3.7 | below the threshold | below the threshold | below the threshold | 4.05 | 3.92 | below the threshold | 3.52 | below the threshold | below the threshold | pKd [21]: below the threshold; pKd [22]: below the threshold; pKd [23]: below the threshold; pKd [24]: below the threshold; pKd [25]: below the threshold; pKd [26]: below the threshold; pKd [27]: below the threshold |
| RDYTQSSSSL [GRM5, P41594] | 3.56 | below the threshold | below the threshold | below the threshold | below the threshold | below the threshold | below the threshold | below the threshold | below the threshold | below the threshold | 4.52 | below the threshold | below the threshold | below the threshold | 3.82 | 3.8 | below the threshold | below the threshold | below the threshold | below the threshold | pKd [21]: below the threshold; pKd [22]: 5.02; pKd [23]: below the threshold; pKd [24]: below the threshold; pKd [25]: below the threshold; pKd [26]: below the threshold; pKd [27]: below the threshold |
| DSEEELPTRL [GRK6, P43250] | below the threshold | below the threshold | 3.57 | below the threshold | below the threshold | below the threshold | below the threshold | below the threshold | below the threshold | below the threshold | 4.51 | below the threshold | below the threshold | below the threshold | 4.51 | below the threshold | below the threshold | 3.82 | below the threshold | below the threshold | pKd [21]: below the threshold; pKd [22]: 4.06; pKd [23]: below the threshold; pKd [24]: 3.53; pKd [25]: below the threshold; pKd [26]: below the threshold; pKd [27]: 4.09 |
| KPDKQEEFYA [SDC3, O75056] | below the threshold | below the threshold | below the threshold | below the threshold | below the threshold | below the threshold | below the threshold | below the threshold | 4.02 | below the threshold | below the threshold | below the threshold | below the threshold | below the threshold | 4.65 | 4.04 | below the threshold | below the threshold | below the threshold | below the threshold | pKd [21]: below the threshold; pKd [22]: below the threshold; pKd [23]: below the threshold; pKd [24]: below the threshold; pKd [25]: below the threshold; pKd [26]: below the threshold; pKd [27]: below the threshold |
